The target in this assay is T1, human VEGFC (Cat. No. Z03286, Genscript) (human, UniProt P49767 112-227, limits assumed).
T1 construct: Bought protein; also called VC
T1 sequence (looked up): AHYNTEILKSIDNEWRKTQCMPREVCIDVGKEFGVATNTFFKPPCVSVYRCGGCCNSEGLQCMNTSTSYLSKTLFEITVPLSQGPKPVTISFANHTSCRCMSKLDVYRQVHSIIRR
Nature of the assay: SPR (Biacore), protein captured on protein A chip, VEGFC as analyte, 25 C. As for the experimental part:
Human VEGFC (Cat. No.: Z03286-10 μg, Genscript, China) solutions with concentrations of 10, 5, 2.5, 1.25, 0.63, 0.31, 0.16, 0.08, and 0 (blank) nM were produced by diluted into a running buffer. Each analysis cycle comprises: (1) capturing the bispecific protein on flow pool 2 (Fc2), (2) injecting the VEGFC solution onto flow cells 1 and 2 (Fc1 and Fc2) at a rate of 30 μL/minute (for 120 seconds), (3) allowing 1×HBS-EP+buffer to flow at 30 μL/minute through the chip for 360 seconds to monitor the dissociation phase, (4) injecting a 10 mM glycine hydrochloride buffer, pH 1.5, to allow surface regeneration of the chip. The data was processed by Biacore™ Insight Evaluation software, using standard double reference and fitting with a 1:1 binding model, to determine the binding rate (kₐ) and dissociation rate (kd).
In general terms: Surface plasmon resonance follows binding to a sensor surface in real time, without labels.

B1: OPT-302 (other, not shown: a dimerising Fc or GST; small tags and cut ends)
chain: YSMTPPTLNITEESHVIDTGDSLSISCRGQHPLEWAWPGAQEAPATGDKDSEDTGVVRDCEGTDARPYCKVLLLHEVHAQDTGSYVCYYKYIKARIEGTTAASSYVFVRDFEQPFINKPDTLLVNRKDAMWVPCLVSIPGLNVTLRSQSSVLWPDGQEVVWDDRRGMLVSTPLLHDALYLQCETTWGDQDFLSNPFLVHITGNELYDIQLLPRKSLELLVGEKLVLNCTVWAEFNSGVTFDWDYPGKQAERGKWVPERRSQQTHTELSSILTIHNVSQHDLGSYVCKANNGIQRFRESTEVIVHE
notes: captured on protein A chip
Molecule B1 returned a Kd of 0.562 nM, a koff of 0.0033 s⁻¹ and a kon of 5.87e+06 M⁻¹ s⁻¹.

The term Kd denotes the equilibrium constant for the complex coming apart. Low values mean higher affinity, high ones lower affinity. A word on the koff: it is a measure of how fast the partners let go of each other. The term kon denotes the rate constant with which the complex forms. Higher therefore signals fast association.
